Assay results published in US20180148485A1 (Pieris, published 2018).
Where two headings read alike, the source gives them in different places.

What was measured:
[1] = target: T1, recombinant human CD137-Fc fusion protein (#838-4B-100, R&D Systems) (human, UniProt Q07011 24-186); experiment: SPR, biotinylated CD137-Fc captured on CAP chip, in analogy to Example 6
T1 construct: also called Fc-fusion of human CD137; not shown: Fc part of the bought fusion protein, not described
Description: Biotinlated CD137-Fc was immobilized on sensor chip and binding of the fusion polypeptides and lipocalin mutein was analyzed at different concentrations.

[2] = target: T1, recombinant human CD137-Fc fusion …; experiment: ELISA, CD137-Fc coated, as described in Example 3
Text: The data was fitted with a 1:1 binding model with EC50 value and the maximum signal as free parameters, and a slope that was fixed to unity.

[3] = target: T1, recombinant human CD137-Fc fusion …; experiment: ELISA, CD137-Fc coated, as described in Example 3; remark: listed apart in the source
[4] = target: T1, recombinant human CD137-Fc fusion …; experiment: SPR, CD137-Fc captured by anti-human Fc antibody on CM5 chip, 1:1 model
Description: Binding affinities of the CD137-binding lipocalin mutein and the bispecific polypeptides of SEQ ID NO: 46 and SEQ ID NO: 47 to recombinant human CD137-Fc fusion protein (#838-4B-100, R&D Systems) were determined by Surface Plasmon Resonance using a Biacore T200 instrument (GE Healthcare) in analogy to Example 6. Prior to the SPR affinity assay, a CM5 sensor chip was derivatized with an anti-human Fc antibody using the Human Antibody Capture Kit (GE Healthcare # BR-1008-39) according to the manufacturer's instructions.
Four different concentrations (1000 nM, 200 nM, 40 nM and 8 nM) of the bispecific polypeptides were prepared in running buffer (10 mM HEPES, 150 mM NaCl, 0.05% v/v Surfactant P20, 3 mM EDTA, pH 7.4 (GE Healthcare)) and applied to the chip surface. Applying a flow rate of 30 μL/min, the sample contact time was 180 s and dissociation time was 600 s. All measurements were performed at 25° C. […] Prior to the protein measurements three regeneration cycles were performed for conditioning purposes. Data were evaluated with Biacore T200 Evaluation software (V 2.0). Double referencing was used and the 1:1 Binding model was used to fit the raw data.

[5] = target: T2, recombinant human GPC3 (R&D Systems #2119-GP-050/CF) (human, UniProt P51654 25-559); experiment: ELISA, GPC3 coated, anti-NGAL-HRP detection
T2 construct: also called Glypican-3; biotinylated human GPC3
Text: GPC3 was coated on a microtiter plate and the tested molecules were titrated. Bound molecules were detected via an HRP-labeled anti-human NGAL-specific antibody as described in Example 12. The data was fitted with a 1:1 binding model with EC50 value and the maximum signal as free parameters, and a slope that was fixed to unity.

[6] = target: T2, recombinant human GPC3 (R&D Systems …); experiment: SPR (Biacore T200), biotinylated GPC3 captured on CAP chip, 1:1 model, apparent affinity
Description: In the SPR affinity assay, biotinylated GPC3 was captured on a sensor chip (“CAP chip”) using the Biotin CAPture Kit (GE Healthcare): sensor Chip CAP is pre-immobilized with an ssDNA oligo. Undiluted Biotin CAPture Reagent (streptavidin conjugated with the complementary ss-DNA oligo) was applied at a flow rate of 2 μL/min for 300 s. For analysis of the lipocalin mutein, biotinylated GPC3 at a concentration of 1 μg/mL was used and 0.25 μg/mL of biotinylated GPC3 for the fusions proteins. The biotinylated GPC3 was applied for 300 s at a flow rate of 5 μL/min. GPC3 was biotinylated by incubation with EZ-Link® NHS-PEG4-Biotin (5-fold molar excess (Thermo Scientific)) during two hours at room temperature. The excess of non-reacted biotin reagent was removed by loading the reaction mixture onto a Zeba™ Spin Desalting Plate (Thermo Scientific). The reference channel was loaded with Biotin CAPture Reagent only.
Applying a flow rate of 30 μL/min, the sample contact time was 180 s and dissociation time was 1200 s. All measurements were performed at 25° C. […] Prior to the protein measurements three regeneration cycles were performed for conditioning purposes. Data were evaluated with Biacore T200 Evaluation software (V 2.0). Double referencing was used and the 1:1 Binding model was used to fit the raw data.

[7] = target: T2, recombinant human GPC3 (R&D Systems …); experiment: SPR, biotinylated GPC3 captured on CAP chip, 1:1 model, apparent affinity
Description: Biotinlated GPC3 was immobilized on a sensor chip and binding of the fusion polypeptides and lipocalin mutein was analyzed at different concentrations.

[8] = target: T2, recombinant human GPC3 (R&D Systems …); experiment: ELISA, GPC3 coated, anti-NGAL-HRP detection; remark: listed apart in the source
Description: The target was dissolved in PBS (1 μg/mL) and coated overnight on microtiter plates at 4° C. The plate was washed after each incubation step with […] PBS supplemented with 0.1% (v/v) Tween 20 (PBS-T) five times. The plates were blocked with 2% BSA (w/v) in PBS-T for 1 h at room temperature and subsequently washed. Different concentrations of the lipocalin mutein (SEQ ID NO: 10) or the fusion polypeptides were added to the wells and incubated for 1 h at room temperature, followed by a wash step. Bound fusion protein or lipocalin mutein was detected after incubation with 1:1000 diluted anti-human NGAL antibody conjugated to HRP in PBS-T supplemented with 2% (w/v) BSA (PBS-TB). After an additional wash step, fluorogenic HRP substrate (QuantaBlu, Thermo) was added to each well and the fluorescence intensity was detected using a fluorescence microplate reader.
The result of the experiment is depicted in FIG. 2, together with the fit curves resulting from a 1:1 binding sigmoidal fit, where the EC50 value and the maximum signal were free parameters, and the slope was fixed to unity.

[9] = target: T2, recombinant human GPC3 (R&D Systems …); experiment: ELISA, GPC3 coated, anti-NGAL-HRP detection; remark: listed apart in the source
Text: GPC3 was coated on a microtiter plate and the tested molecules were titrated. […] The data was fitted with a 1:1 binding model with EC50 value and the maximum signal as free parameters, and a slope that was fixed to unity.

T2 sequence (P51654 25-559 limits assumed): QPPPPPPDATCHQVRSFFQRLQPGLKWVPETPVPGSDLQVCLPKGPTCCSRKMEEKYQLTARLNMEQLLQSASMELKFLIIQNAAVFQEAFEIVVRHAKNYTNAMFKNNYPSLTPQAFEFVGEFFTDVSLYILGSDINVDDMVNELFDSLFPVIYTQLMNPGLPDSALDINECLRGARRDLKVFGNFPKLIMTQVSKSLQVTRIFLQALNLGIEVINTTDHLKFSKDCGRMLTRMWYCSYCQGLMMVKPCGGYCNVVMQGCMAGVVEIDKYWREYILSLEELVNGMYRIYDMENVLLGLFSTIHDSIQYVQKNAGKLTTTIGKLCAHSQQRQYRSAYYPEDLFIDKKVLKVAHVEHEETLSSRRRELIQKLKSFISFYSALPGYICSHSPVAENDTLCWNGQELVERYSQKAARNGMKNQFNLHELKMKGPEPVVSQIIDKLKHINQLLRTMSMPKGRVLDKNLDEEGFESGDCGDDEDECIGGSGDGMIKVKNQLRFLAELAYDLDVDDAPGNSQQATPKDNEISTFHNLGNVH

| Kd [1] | EC50 [2] | EC50 [3] | Kd [4] | EC50 [5] | Kd [6] | Kd [7] | EC50 [8] | EC50 [9] | Binder |
| --- | --- | --- | --- | --- | --- | --- | --- | --- | --- |
| 2.3 nM | 0.43 nM | 0.28 nM | 0.0023 nM |  |  |  |  |  | CD137-binding lipocalin mutein of SEQ ID NO: 26 (designed binder) QDSTSDLIPAPPLSKVPLQQNFQDNQFHGKWYVVGQAGNIRLREDKDPIKMMATIYELKEDKSYDVTMVKFDDKKCMYDIWTFVPGSQPGEFTLGKIKSFPGHTSSLVRVVSTNYNQHAMVFFKFVFQNREEFYITLYGRTKELTSELKENFIRFSKSLGLPENHIVFPVPIDQCIDG |
|  |  |  |  | 0.55 nM | 0.012 nM | 0.033 nM | 0.55 nM | 0.32 nM | GPC3-binding lipocalin mutein of SEQ ID NO: 10 (designed binder, hNGAL-based lipocalin mutein; also called GPC3 lipocalin mutein) QDSTSDLIPAPPLSKVPLQQNFQDNQFQGKWYVVGRAGNVGLREDKDPPKMWATIYELKEDKSYDVTNVRFARKKCTYSIGTFVPGSQPGEFTLGQIKSEPGGTANLVRVVSTNYNQHAMVFFKEVYQNREIFFIILYGRTKELTSELKENFIRFSKSLGLPENHIVFPVPIDQCIDG |
